The source of these data is publication PMC7991749.

For series [1], the system named is ctXPD (Chaetomium thermophilum). The series can be described thus: photo-cross-linking. Conditions: 5 mM Mg2+, FA: 20 mM HEPES pH 7.5, 30 mM KCl, 5 mM MgCl2, 1 mM TCEP, 10 nM DNA, photo-cross-linking: 20 mM HEPES pH 7.5, 50 mM KCl.
The subject of series [2] is ctXPD;ctp44 (Chaetomium thermophilum;Chaetomium thermophilum). The series can be described thus: photo-cross-linking. The following applies: 5 mM Mg2+, 2.5 mM ATP, FA: 20 mM HEPES pH 7.5, 30 mM KCl, 5 mM MgCl2, 1 mM TCEP, 10 nM DNA, room temperature, photo-cross-linking: 20 mM HEPES pH 7.5, 50 mM KCl.
For series [3], the target named is ctXPD (XPD helicase from Chaetomium thermophilum) (Chaetomium thermophilum).
Series [4] relates to ctXPD;ctp44 (Chaetomium thermophilum;Chaetomium thermophilum). The series can be described thus: fluorescence anisotropy. Conditions: FA: 20 mM HEPES pH 7.5, 30 mM KCl, 5 mM MgCl2, 1 mM TCEP, 10 nM DNA, room temperature, photo-cross-linking: 20 mM HEPES pH 7.5, 50 mM KCl. (In general: In fluorescence polarisation assays a small probe gives low polarisation when free and higher when bound to something large.)

As to “AAGCCTATGCCTACAGCATCCAGGGCGACGGTGCCGAGGATGACGATGAGCGCA / TGCGCTCATCGTCATCCTCGGCACCGTCGCCCTGGATG [fs-Fap-dC 54/38]”, the binding signal (relative cross-linking (reference)) in series [1] (no ATP, no ctp44, Fap-dC at position 26 of strand 1 (position inferred from parallel oligos), room temperature) came out at 1. Moreover, the binding signal (fold vs same mixture without ATP) turned out to be 2.6 in series [2] (ctXPD adduct, Fap-dC at position 26 of strand 1 (position inferred from parallel oligos)) and 2 in series [2] (ctp44 adduct, Fap-dC at position 26 of strand 1 (position inferred from parallel oligos)).

ctp44 (1-285) (domain or fragment): the ATPase activity of ctXPD (NADH-coupled assay, 37°C): activation by 4 to 1000 nM ctp44 titrated onto 250 nM ctXPD in the presence of 1 μM ssDNA in series [3] came to 82 nM.

The substance “ATGCCTACAGCAAGCCTATGCCTACAGCATCCAGGGNGACGGTGCCGAG [ss-nAnt 49 (ss-Ant)]” came in with a K half in series [4] (position 37 (N; printed A) = nAnt, N-[6-(9-anthracenylcarbamoyl)hexanoyl]-3-amino-1,2-propanediol, non-nucleoside lesion) of 63 nM.

As to “ATGCCTACAGCAAGCCTATGCCTACAGCATCCAGGGCGACGGTGCCGAG [ss-Fap-dC 49]”, the K half in series [4] (5 mM Mg2+, 2 mM ATP, EC50, Fap-dC at position 37 (position inferred from parallel oligos)) came out at 307 nM; in series [4] (Fap-dC at position 37 (position inferred from parallel oligos)) it was 200 nM.

As to “AAGCCTATGCCTACAGCATCCAGGGCGACGGTGCCGAGGATGACGATGAGCGCA / TGCGCTCATCGTCATCCTCGGCACCGTCGCCCTGGATG [fs-Fab(g)-dC 54/38]”, the binding signal (fold vs same probe without ATP) in series [1] (2.5 mM ATP, no ctp44, position 26 of strand 1 (B) = Fab(g)-dC, room temperature) turned out to be 2.1. The binding signal (fold vs same mixture without ATP) was 1.8 in series [2] (ctXPD adduct, position 26 of strand 1 (B) = Fab(g)-dC) and 2 in series [2] (ctp44 adduct, position 26 of strand 1 (B) = Fab(g)-dC).

Turning to “ATGCCTACAGCAAGCCTATGCCTACAGCATCCAGGGNGACGGTGCCGAG [ss-nFlu 49]”, the K half in series [4] (position 37 (N; printed F) = nFlu lesion) came to 3 nM.

Turning to “ATGCCTACAGCAAGCCTATGCCTACAGCATCCAGGGCGACGGTGCCGAG [ss-um 49]”, in series [4] (none), the K half stood at 500 nM.

The substance “AAGCCTATGCCTACAGCATCCAGGGCGACGGTGCCGAGGATGACGATGAGCGCA [ss-Fap-dC 54]” had a binding signal (fold cross-linking vs ds probe) in series [1] (Fap-dC at position 26 (position inferred from parallel oligos), room …) of 3.

For the substance “ATGCCTACAGCAAGCCTATGCCTACAGCATCCAGGGCGACGGTGCCGAG [ss-Fab(g)-dC 49]”, the K half in series [4] (5 mM Mg2+, 2 mM ATP, EC50, position 37 (B) = Fab(g)-dC) was 268 nM.

Turning to “AAGCCTATGCCTACAGCATCCAGGGCGACGGTGCCGAGGATGACGATGAGCGCA [ss-Fab(g)-dC 54]”, the binding signal (fold cross-linking vs ds probe) in series [1] (position 26 (B) = Fab(g)-dC, room temperature, 5 mM MgCl2, 1 mM …) stood at 3.
